One block for each binder: values may come before it.
Experiments:
human VEGF [1] = biological target: T1, human VEGF (human, UniProt P15692 207-395, biotinylated (site not stated)); assay: Biacore SPR, Hu VEGF-biotin, 37 C
T1 construct: Biotinylated human VEGF generated internally; also called hVEGF; hVEGF-biotin
T1 sequence: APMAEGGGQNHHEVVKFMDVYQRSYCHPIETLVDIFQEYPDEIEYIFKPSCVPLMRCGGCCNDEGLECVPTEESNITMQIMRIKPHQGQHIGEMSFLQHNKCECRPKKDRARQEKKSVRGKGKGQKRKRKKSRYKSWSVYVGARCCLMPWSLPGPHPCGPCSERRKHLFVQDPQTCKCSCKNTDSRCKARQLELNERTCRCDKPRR

human Factor P [2] = biological target: T2, human Factor P (human, UniProt P27918 28-469, biotinylated (site not stated)); assay: Biacore SPR, Hu factor P-biotin, 37 C
T2 construct: also called Factor P-biotin; Hu factor P-biotin

human Factor P [3] = biological target: T2, human Factor P; assay: Biacore SPR; affinity of NVS71T against untagged NVS71
human Factor P [4] = biological target: T2, human Factor P; assay: Biacore SPR, Factor P-biotin, 25 C
human VEGF [5] = biological target: T1, human VEGF; assay: Biacore SPR, hVEGF-biotin, 37 C
human VEGF [6] = biological target: T1, human VEGF; assay: Biacore SPR, hVEGF (second row labelled Y32H); the sign of the exponent is misprinted (kd/KD of the same row = 4.9e6); second row labelled Y32H (r159), not r156
Experimental: (§1) At first, individual CDR residues were substituted and the affinity for hVEGF was measured by Biacore as described below. […] HC8T, and HC9T and the affinity of the resulting peptide-tagged Fab for both HA and hVEGF was measured by Biacore as described below (Table 17).
(§2) Affinity of optimized HA-binding peptide tags for HA and human VEGF were measured by Biacore. […] In order to determine target kinetics, two different formats were utilized. […] The second format is an anti-fab capture method in which the fab protein samples are captured and the target proteins flowed over at various concentrations.
(§3) The sample compartment which includes the analytes, ligands, and regeneration buffer, is kept at 15° C. All other running conditions were carried out at either 25° C. or 37° C. in 1×HBSE+P buffer. […] Data was collected at 10 Hz and analyzed using the Biacore T200 Evaluation Software (GE Healthcare®). This program uses a global fitting analysis method for the determination of rate and affinity constants for each interaction.

human VEGF [7] = biological target: T1, human VEGF; assay: Biacore SPR, hVEGF
Experimental: as §1, §2, §3

human VEGF [8] = biological target: T1, human VEGF; assay: Biacore SPR, hVEGF (second row labelled Y32H)
Experimental: as §1, §2, §3

human VEGF [9] = biological target: T1, human VEGF; assay: Biacore SPR, hVEGF; the minus sign of the exponent is missing in print (kd/ka of the same row = 3.05e-12)
Experimental: as §1, §2, §3

IL-1β = biological target: T3, IL-1β (human, UniProt P01584 117-269, biotinylated (site not stated)); assay: Biacore SPR, IL1β-biotin, 25 C
T3 construct: also called IL1β-biotin

human VEGF [10] = biological target: T1, human VEGF; assay: Biacore SPR, Hu VEGF-biotin, 25 C
Experimental: (§4) In order to determine target kinetics, two different formats were utilized. […] The second format is an anti-fab capture method in which the fab protein samples are captured and the target proteins flowed over at various concentrations.
as §3

human TNFα [11] = biological target: T4, human TNFα (human, UniProt P01375 77-233, biotinylated (site not stated)); assay: Biacore SPR; affinity of NVS73T against untagged NVS73
T4 construct: also called TNFα-biotin; Hu TNFα-biotin

human TNFα [12] = biological target: T4, human TNFα; assay: Biacore SPR, TNFα-biotin, 37 C
Experimental: as §4, §3

human TNFα [13] = biological target: T4, human TNFα; assay: Biacore SPR, Hu TNFα-biotin, 37 C

T2 sequence (P27918 28-469 limits assumed): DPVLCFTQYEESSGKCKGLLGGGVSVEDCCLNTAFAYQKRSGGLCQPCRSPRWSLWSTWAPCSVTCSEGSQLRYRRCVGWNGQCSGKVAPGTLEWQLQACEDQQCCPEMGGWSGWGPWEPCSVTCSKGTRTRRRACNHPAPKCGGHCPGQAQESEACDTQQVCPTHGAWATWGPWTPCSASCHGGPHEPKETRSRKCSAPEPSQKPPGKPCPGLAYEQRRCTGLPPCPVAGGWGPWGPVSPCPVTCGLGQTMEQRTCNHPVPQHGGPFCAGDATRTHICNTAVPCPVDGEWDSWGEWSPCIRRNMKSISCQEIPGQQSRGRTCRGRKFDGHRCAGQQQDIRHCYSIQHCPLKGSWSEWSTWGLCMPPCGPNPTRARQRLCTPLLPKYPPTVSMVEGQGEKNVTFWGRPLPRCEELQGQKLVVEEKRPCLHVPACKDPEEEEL
T4 sequence (P01375 77-233 limits assumed): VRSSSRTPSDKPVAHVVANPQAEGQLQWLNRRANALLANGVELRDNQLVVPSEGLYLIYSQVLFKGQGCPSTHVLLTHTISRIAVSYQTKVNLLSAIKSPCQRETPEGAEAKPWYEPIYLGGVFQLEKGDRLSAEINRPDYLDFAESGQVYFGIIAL

B2: NVS71T (Fab, V domains shown)
VH: EVQLVQSGAEVKKPGSSVKVSCKASGGTFSSYAISWVRQAPGQGLEWMGRIIPIFGTANYAQKFQGRVTITADESTSTAYMELSSLRSEDTAVYYCARHGGYSFDSWGQGTLVTVSS
VL: SYELTQPPSVSVAPGQTARISCSGDNLGSKYVDWYQQKPGQAPVLVIYSDNNRPSGIPERFSGSNSGNTATLTISGTQAEDEADYYCQTYTSGNNYLVFGGGTKLTVLG
notes: Anti-Factor P Fab with HA tag at heavy chain C-terminus
Kd (human Factor P [2]): 95.5 pM
koff (human Factor P [2]): 0.000412 s⁻¹
kon (human Factor P [2]): 4.31e+06 M⁻¹ s⁻¹
Fold improvement (human Factor P [3]): 5.7 fold
Kd (human Factor P [4]): 95.5 pM
koff (human Factor P [4]): 0.000412 s⁻¹
kon (human Factor P [4]): 4.31e+06 M⁻¹ s⁻¹

B3: NVS1e (Fab)
heavy: EVQLVESGGGLVQPGGSLRLSCTASGFSLTDYYYMTWVRQAPGKGLEWVGFIDPDDDPYYATWAKGRFTISRDNSKNTLYLQMNSLRAEDTAVYYCAGGDHNSGWGLDIWGQGTLVTVSSASTKGPSVFPLAPSSKSTSGGTAALGCLVKDYFPEPVTVSWNSGALTSGVHTFPAVLQSSGLYSLSSVVTVPSSSLGTQTYICNVNHKPSNTKVDKRVEPKSCGS
light: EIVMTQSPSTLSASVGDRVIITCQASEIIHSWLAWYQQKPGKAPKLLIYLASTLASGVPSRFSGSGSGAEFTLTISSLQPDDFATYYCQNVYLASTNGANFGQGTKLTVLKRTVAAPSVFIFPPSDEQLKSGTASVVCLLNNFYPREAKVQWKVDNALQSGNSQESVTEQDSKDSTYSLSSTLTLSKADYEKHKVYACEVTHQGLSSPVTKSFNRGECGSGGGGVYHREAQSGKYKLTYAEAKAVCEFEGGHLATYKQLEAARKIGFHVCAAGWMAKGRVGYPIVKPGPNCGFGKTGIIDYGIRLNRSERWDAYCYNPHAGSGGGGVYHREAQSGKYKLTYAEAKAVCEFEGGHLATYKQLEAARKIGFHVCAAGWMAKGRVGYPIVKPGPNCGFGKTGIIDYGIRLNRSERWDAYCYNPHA
notes: NVS4 with two tandem HA tags at the light chain C-terminus
Kd (human VEGF [5]): 0.9 pM
koff (human VEGF [5]): 1.26e-05 s⁻¹
kon (human VEGF [5]): 1.4e+07 M⁻¹ s⁻¹

B4: NVS4 heavy chain variant Y32H (Fab, V domains shown)
VH: EVQLVESGGGLVQPGGSLRLSCTASGFSLTDHYYMTWVRQAPGKGLEWVGFIDPDDDPYYATWAKGRFTISRDNSKNTLYLQMNSLRAEDTAVYYCAGGDHNSGWGLDIWGQGTLVTVSS
VL: EIVMTQSPSTLSASVGDRVIITCQASEIIHSWLAWYQQKPGKAPKLLIYLASTLASGVPSRFSGSGSGAEFTLTISSLQPDDFATYYCQNVYLASTNGANFGQGTKLTVLK
notes: CDR variant of NVS4; The label Y32H is printed in two rows (r156, r159) with different values
kon (human VEGF [6]): 4.91e+06 M⁻¹ s⁻¹
Kd (human VEGF [7]): 20.4 pM
koff (human VEGF [7]): 0.000112 s⁻¹
kon (human VEGF [7]): 5.49e+06 M⁻¹ s⁻¹
Kd (human VEGF [8]): 169 pM
koff (human VEGF [8]): 0.000829 s⁻¹

B5: NVS4 light chain variant E27Q (Fab, V domains shown)
VH: EVQLVESGGGLVQPGGSLRLSCTASGFSLTDYYYMTWVRQAPGKGLEWVGFIDPDDDPYYATWAKGRFTISRDNSKNTLYLQMNSLRAEDTAVYYCAGGDHNSGWGLDIWGQGTLVTVSS
VL: EIVMTQSPSTLSASVGDRVIITCQASQIIHSWLAWYQQKPGKAPKLLIYLASTLASGVPSRFSGSGSGAEFTLTISSLQPDDFATYYCQNVYLASTNGANFGQGTKLTVLK
notes: CDR variant of NVS4
Kd (human VEGF [9]): 3.06 pM
koff (human VEGF [7]): 1.64e-05 s⁻¹
kon (human VEGF [7]): 5.37e+06 M⁻¹ s⁻¹

B8: NVS73T (Fab, V domains shown)
VH: EVQLVESGGGSVQPGGSLRLSCTASGFTISRSYWICWVRQAPGKGLEWVGCIYGDNDITPLYANWAKGRFTISRDTSKNTVYLQMNSLRAEDTATYYCARLGYADYAYDLWGQGTTVTVSS
VL: EIVMTQSPSTLSASVGDRVIITCQSSQSVYGNIWMAWYQQKPGRAPKLLIYQASKLASGVPSRFSGSGSGAEFTLTISSLQPDDFATYYCQGNFNTGDRYAFGQGTKLTVLK
notes: Anti-TNFα Fab with HA tag at heavy chain C-terminus
Fold improvement (human TNFα [11]): 35 fold
Kd (human TNFα [12]): 0.742 pM
koff (human TNFα [12]): 2.47e-05 s⁻¹
kon (human TNFα [12]): 3.33e+07 M⁻¹ s⁻¹
Kd (human TNFα [13]): 0.742 pM
koff (human TNFα [13]): 2.47e-05 s⁻¹
kon (human TNFα [13]): 3.33e+07 M⁻¹ s⁻¹

Other lines, results leading:

Kd (human VEGF [1]): 7.64 pM
koff (human VEGF [1]): 2.34e-05 s⁻¹
kon (human VEGF [1]): 3.06e+06 M⁻¹ s⁻¹
B1: NVS82 (antibody, human IgG1, kappa, L234A L235A)
heavy: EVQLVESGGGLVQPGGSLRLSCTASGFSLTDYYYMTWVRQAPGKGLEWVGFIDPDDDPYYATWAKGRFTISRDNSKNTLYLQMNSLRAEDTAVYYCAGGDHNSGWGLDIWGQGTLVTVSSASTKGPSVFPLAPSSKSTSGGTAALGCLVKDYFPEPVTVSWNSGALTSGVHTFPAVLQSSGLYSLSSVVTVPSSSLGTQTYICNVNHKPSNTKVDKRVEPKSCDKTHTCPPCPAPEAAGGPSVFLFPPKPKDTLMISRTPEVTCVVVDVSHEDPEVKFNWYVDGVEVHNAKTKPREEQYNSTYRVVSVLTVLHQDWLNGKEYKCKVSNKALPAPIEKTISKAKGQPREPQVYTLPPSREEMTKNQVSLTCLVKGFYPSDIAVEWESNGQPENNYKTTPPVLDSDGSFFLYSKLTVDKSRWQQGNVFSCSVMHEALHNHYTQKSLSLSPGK
light: EIVMTQSPSTLSASVGDRVIITCQASEIIHSWLAWYQQKPGKAPKLLIYLASTLASGVPSRFSGSGSGAEFTLTISSLQPDDFATYYCQNVYLASTNGANFGQGTKLTVLKRTVAAPSVFIFPPSDEQLKSGTASVVCLLNNFYPREAKVQWKVDNALQSGNSQESVTEQDSKDSTYSLSSTLTLSKADYEKHKVYACEVTHQGLSSPVTKSFNRGEC
notes: also called IgG of NVS4

Kd (IL-1β): 14 pM
koff (IL-1β): 6.9e-05 s⁻¹
kon (IL-1β): 4.95e+06 M⁻¹ s⁻¹
B6: NVS75T (Fab, V domains shown)
VH: QVQLVESGGGVVQPGRSLRLSCAASGFTFSVYGMNWVRQAPGKGLEWVAIIWYDGDNQYYADSVKGRFTISRDNSKNTLYLQMNGLRAEDTAVYYCARDLRTGPFDYWGQGTLVTVSS
VL: EIVLTQSPDFQSVTPKEKVTITCRASQSIGSSLHWYQQKPDQSPKLLIKYASQSFSGVPSRFSGSGSGTDFTLTINSLEAEDAAAYYCHQSSSLPFTFGPGTKVDIKR
notes: Anti-IL-1β Fab with HA tag; also called NCS75T

Kd (human VEGF [10]): 6.75 pM
koff (human VEGF [10]): 9.18e-06 s⁻¹
kon (human VEGF [10]): 1.36e+06 M⁻¹ s⁻¹
B7: NVS83 (scFv)
scFv: MEIVMTQSPSTLSASVGDRVIITCQASEIIHSWLAWYQQKPGKAPKLLIYLASTLASGVPSRFSGSGSGAEFTLTISSLQPDDFATYYCQNVYLASTNGANFGQGTKLTVLGGGGGGSGGGGSGGGGSSGGGSEVQLVESGGGLVQPGGSLRLSCTASGFSLTDYYYMTWVRQAPGKGLEWVGFIDPDDDPYYATWAKGRFTISRDNSKNTLYLQMNSLRAEDTAVYYCAGGDHNSGWGLDIWGQGTLVTVSSHHHHHH
notes: also called scFv of NVS4

Source: patent US20170290876A1 (Novartis, published 2017)
